Source: patent publication US20220002432A1 (VIRTUOSO BINCO, published 2022)

T1: Rhesus-ICAM1 (rhesus, UniProt Q5NKV6 28-480, limits assumed)
T1 sequence (looked up): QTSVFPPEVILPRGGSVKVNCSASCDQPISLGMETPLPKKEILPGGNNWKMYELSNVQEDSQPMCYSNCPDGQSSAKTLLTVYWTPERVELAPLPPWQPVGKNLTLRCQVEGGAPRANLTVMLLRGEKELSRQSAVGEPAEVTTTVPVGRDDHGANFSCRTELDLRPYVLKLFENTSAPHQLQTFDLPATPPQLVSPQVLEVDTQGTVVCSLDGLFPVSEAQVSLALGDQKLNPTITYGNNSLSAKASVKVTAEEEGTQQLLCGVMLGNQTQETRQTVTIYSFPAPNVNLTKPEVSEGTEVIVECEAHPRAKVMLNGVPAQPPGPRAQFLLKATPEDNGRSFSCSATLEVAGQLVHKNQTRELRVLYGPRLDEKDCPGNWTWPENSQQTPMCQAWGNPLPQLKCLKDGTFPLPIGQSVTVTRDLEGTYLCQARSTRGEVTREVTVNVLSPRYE

B1: 11F2 (antibody, human IgG1, kappa, V domains shown)
VH: QSVEESGGGLVKPGGTLTLTCTVSGFSLSSHAMGWVRQAPGKGLEYIGIIGSSDRTYYASWAKGRFTISKTSTTVDLKITSPTTEDTATYFCVRDPYDSYDDGYRLWGPGTLVTVSS
VL: AYDMTQTPASVEVAVGGTVTIKCQASQSIYRYLSWYQKKPGQRPKFLIYDASKLASGVPSRFEGSGSGTEFTLTISGAQSDDAATYYCQQAYSSGSIDNAFGGGTEVVVKR
notes: Rabbit-human chimeric anti-ICAM1: rabbit VH and VL on human IgG1 and kappa constant regions
B2: 8H1 (antibody, human IgG1, kappa, V domains shown)
VH: QSVEESGGRLVTPGTPLTLTCTASGFSLSNYYMSWVRQAPGKGLEWIGIISDSGSTYYASWAKGRFTISKTSTTVDLKITSPTTEDTATYFCARDWSYDSSSGYYYYDMDLWGPGTLVTVSA
VL: GYDMTQTPASVEVAVGGTVTIKCQASQSINSWLAWFQHKPGQPPKRLIYKASTLASGVSSRFKGSGSGTQFTLTISGVESADAATYYCQQGYSRSDGEHVFGGGTEVVVKR
notes: as for B1
B3: 11G7 (antibody, human IgG1, kappa, V domains shown)
VH: QSVEESGGRLVTPGTPLTLTCTVSGFSLSDYYMSWVRQAPGKGLEWIGIISDSGSTYYASWAKGRFTISKTSSTTVDLKITSPTTEDTATYFCARDWSYDSSSGYYYYDMDLWGPGTLVTVSA
VL: AYDMTQTPASVEVAVGGTVTIKCQASQSINSWLSWFHQKPGQPPKRLIYKASTLASGVSSRFKGSGSGTQFTLTISGVESADAATYYCQQGYSRSDGEHVFGGGTEVVVKR
notes: as for B1
B4: 14H1 (antibody, human IgG1, kappa, V domains shown)
VH: QSVEESGGRLVTPGTPLTLTCTVSGFSLSNYYMSWVRQAPGKGLEWIGIISDSGSTYYASWAKGRFTISKTSTTVDLSITSPTTEDTATYFCARDWSYDSTSGYYYYDMDLWGPGTLVTVSA
VL: AYDMTQTPASVEVAVGGTVTIKCQASQSINSWLSWFHQKPGQPPKRLIYKASTLASGVSSRFKGSGSGTQFTLTISGVESADAATYYCQQGYSRSDGEHVFGGGTEVVVKR
notes: as for B1
B5: 15D10 (antibody, human IgG1, kappa, V domains shown)
VH: QSVEESGGRLVTPGTPLTLTCTASGFSLNNYYMSWVRQAPGKGLEWIGIISDSDNTYYASWAKGRFTISKTSTTVDLKITSPTTEDTATYFCARDWSLDSSSGYYYYDMDLWGPGTLVTVSA
VL: AYDMTQTPASMEVAVGGTVTIKCQASQNIHSWLAWFQQKPGQPPKRLIYKASTLASGVPSRFKGSGSGTQFTLTISGVQSDDAATYYCQQGYSRSDGEHVFGGGTEVVVKR
notes: as for B1
B6: 4H5 (antibody, human IgG1, kappa, V domains shown)
VH: QSVEESGGRLVTPGTPLTLTCTASGFSLSNYYMSWVRQAPGKGLEWIGIISDSGTTYYASWAKGRFTISKTSTTVDLKITSPTTEDTATYFCARDWSYDSSSGYYYYDMDLWGPGTLVTVSA
VL: GYDMTQTPASVEVAVGGTVTIKCQASQSINSWLVWFQHKPGQPPKRLIYKASTLASGVSSRFKGSGSGTHFTLTISGVESADAATYYCQQGYSRSDGEHVFGGGTEVVVKR
notes: as for B1
B7: 4618_1 (antibody, human IgG1, kappa, V domains shown)
VH: EVQLLESGGGLVQPGGSLRLSCAASGFPFDVYAMSWVRQAPGKGLEWVSAISGSGGSTFYADSVKGRFTISRDNSKNTLYLQMNSLRAEDTAVYYCAKRGTYAYSFPTGFDYWGQGTLVTVSS
VL: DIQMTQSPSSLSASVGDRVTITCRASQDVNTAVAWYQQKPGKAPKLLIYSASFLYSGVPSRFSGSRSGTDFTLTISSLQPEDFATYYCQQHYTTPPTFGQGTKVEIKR
notes: Human IgG1 with the common anti-HER2 light chain; Library-derived anti-CD38
B8: 4618_5 (antibody, human IgG1, kappa, V domains shown)
VH: EVQLLESGGGLVQPGGSLRLSCAASGFPFDAYAMSWVRQAPGKGLEWVSAISGSGGSTYYADSVKGRFTISRDNSKNTLYLQMNSLRAEDTAVYYCAKRGTYAYSFPTGFDYWGQGTLVTVSS
VL: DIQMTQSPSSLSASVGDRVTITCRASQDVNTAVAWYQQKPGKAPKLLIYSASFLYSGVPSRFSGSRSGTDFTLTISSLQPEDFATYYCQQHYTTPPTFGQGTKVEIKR
notes: as for B7
B9: 32018_7 (antibody, human IgG1, kappa, V domains shown)
VH: EVQLLESGGGLVQPGGSLRLSCAASGFPFGTYAMSWVRQAPGKGLEWVSAISGSGGSTFYADSVKGRFTISRDNSKNTLYLQMNSLRAEDTAVYYCAKRGTYGYSFPTGFDYWGQGTLVTVSS
VL: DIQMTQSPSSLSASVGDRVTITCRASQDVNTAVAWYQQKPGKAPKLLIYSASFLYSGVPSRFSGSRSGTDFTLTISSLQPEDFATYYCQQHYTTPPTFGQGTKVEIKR
notes: as for B7
B10: 32218_2 (antibody, human IgG1, kappa, V domains shown)
VH: EVQLLESGGGLVQPGGSLRLSCAASGFPFDTYAMSWVRQAPGKGLEWVSAISGSGGSTYYADSVKGRFTISRDNSKNTLYLQMNSLRAEDTAVYYCAKRGTYAYSFPTGFDYWGQGTLVTVSS
VL: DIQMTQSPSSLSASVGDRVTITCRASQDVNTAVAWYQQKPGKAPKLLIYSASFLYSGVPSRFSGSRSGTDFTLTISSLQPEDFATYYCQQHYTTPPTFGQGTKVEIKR
notes: as for B7
B11: 32218_1 (antibody, human IgG1, kappa, V domains shown)
VH: EVQLLESGGGLVQPGGSLRLSCAASGFPFGVYAMSWVRQAPGKGLEWVSAISGSGGSTFYADSVKGRFTISRDNSKNTLYLQMNSLRAEDTAVYYCAKRGTYAYSFPTGFDYWGQGTLVTVSS
VL: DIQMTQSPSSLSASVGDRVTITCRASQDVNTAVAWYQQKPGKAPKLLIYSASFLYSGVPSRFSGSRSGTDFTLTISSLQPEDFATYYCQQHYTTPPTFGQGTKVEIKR
notes: as for B7
B12: 4618_5F_12 (antibody, human IgG1, kappa, V domains shown)
VH: EVQLLESGGGLVQPGGSLRLSCAASGFPFDAYAMSWVRQAPGKGLEWVSAISGSGGSTFYADSVKGRFTISRDNSKNTLYLQMNSLRAEDTAVYYCAKRGTYAYSYPTGFDYWGQGTLVTVSS
VL: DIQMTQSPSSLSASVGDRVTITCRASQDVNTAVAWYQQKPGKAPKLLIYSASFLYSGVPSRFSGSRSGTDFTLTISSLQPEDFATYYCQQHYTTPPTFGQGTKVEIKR
notes: Human IgG1 with the common anti-HER2 light chain
B13: 4618_1_12 (antibody, human IgG1, kappa, V domains shown)
VH: EVQLLESGGGLVQPGGSLRLSCAASGFPFDVYAMSWVRQAPGKGLEWVSAISGSGGSTFYADSVKGRFTISRDNSKNTLYLQMNSLRAEDTAVYYCAKRGTYAYSYPTGFDYWGQGTLVTVSS
VL: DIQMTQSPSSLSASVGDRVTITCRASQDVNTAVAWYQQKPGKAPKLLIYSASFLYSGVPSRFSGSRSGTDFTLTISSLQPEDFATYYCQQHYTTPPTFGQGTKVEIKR
notes: as for B7
B14: 4618_5_12 (antibody, human IgG1, kappa, V domains shown)
VH: EVQLLESGGGLVQPGGSLRLSCAASGFPFDAYAMSWVRQAPGKGLEWVSAISGSGGSTYYADSVKGRFTISRDNSKNTLYLQMNSLRAEDTAVYYCAKRGTYAYSYPTGFDYWGQGTLVTVSS
VL: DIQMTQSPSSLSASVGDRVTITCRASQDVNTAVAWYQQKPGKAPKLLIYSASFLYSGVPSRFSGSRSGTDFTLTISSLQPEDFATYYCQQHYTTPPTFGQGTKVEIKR
notes: as for B7
B15: 4618_12 (antibody, human IgG1, kappa, V domains shown)
VH: EVQLLESGGGLVQPGGSLRLSCAASGFPFGVYAMSWVRQAPGKGLEWVSAISGSGGSTFYADSVKGRFTISRDNSKNTLYLQMNSLRAEDTAVYYCAKRGTYAYSYPTGFDYWGQGTLVTVSS
VL: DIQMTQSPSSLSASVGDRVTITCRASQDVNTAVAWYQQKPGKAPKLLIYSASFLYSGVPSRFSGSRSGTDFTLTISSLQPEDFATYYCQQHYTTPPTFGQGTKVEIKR
notes: as for B12

Tests used:
Rhesus-ICAM1 [1] = target: T1, Rhesus-ICAM1; assay: ELISA: plate coated with 1 ug/ml recombinant rhesus ICAM1 ECD, serially diluted antibody, OD450
Experimental: (§1) The plate was coated overnight at 4° C. with 1 μg/ml recombinant CD38 or ICAM1. After washing 3 times, the plate was blocked with 300 μl 1% BSA in PBST at 37° C. for 1 hour. Serially diluted antibodies were added and incubated at 37° C. for 1 hour. The plate was then washed 4 times with PBST and incubated with 1:5000 diluted 2nd antibody (Sigma, Cat #A0293) at 37° C. for 1 hour.

[2] = target: T2, ICAM1 on the surface of DU145 cells (human, UniProt P05362 28-532); assay: flow cytometry, DU145 cells;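 further: purified antibodies in dilution series bound to cells for 1 h at 4 °C, detected with a fluorescent secondary antibody (1 h, 4 °C, dark), read by flow cytometry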
T2 construct: whole, on cells
Experimental: Harvested cells were centrifuged at 2000 rpm for 5 min and resuspended with 10-15 ml ice-cold culture medium. Cells were counted and then 3×10⁶ cells were resuspended per mL of blocking buffer (PBS plus 2% FBS). 100 μl of the cell suspension was dispensed into each well of a 96-well plate and incubated at room temperature for 10-20 min. […] While incubating, purified antibodies were diluted to the desired dilution with blocking buffer. After a 10-20 minutes incubation, cells were centrifuged for 5 min at 2000 rmp in a refrigerated centrifuge. Blocking buffer was aspirated, and cells were resuspended in 100 μl/well diluted antibodies and incubated for 1 hour at 4° C. The cells were then washed 3 times with PBS plus 2% FBS. After the final wash, the cells were resuspended in 100 μl 1:500 diluted secondary antibody (Invitrogen, Cat #: A10631) and incubated for 1 hour at 4° C. in the dark. The cells were then washed 3 times with 200 μl PBS by centrifuging at 2000 rpm for 5 min. After the last wash, the cells were resuspended in 300 μl cold PBS and analyzed on a FACSVerse™ (BD Biosciences) flow cytometer.

recombinant human ICAM1 [3] = target: T3, recombinant human ICAM1 (human, UniProt P05362 28-480, limits assumed); assay: ELISA: plate coated with 1 ug/ml recombinant human ICAM1 ECD, serially diluted antibody, OD450
Experimental: as §1

Rhesus-ICAM1 [4] = target: T1, Rhesus-ICAM1; assay: SPR (Biacore 8K), antibody captured, antigen injected
Experimental: (§2) The binding kinetics of the anti-CD38 and anti-ICAM1 antibodies were evaluated on a Biacore 8K instrument (GE Healthcare). Biacore Series S CM5 sensor chips were immobilized with monoclonal mouse anti-human IgG (Fc) antibody (human antibody capture kit from GE Healthcare). Antibodies were captured on each flow cell. Serial 3-fold dilutions of each antigen were injected at a flow rate of 30 μl/min. Each sample was analyzed with 1 min association and 10 min dissociation at room temperature (25° C.). After each injection, the chip was regenerated using 3M MgCl₂. A 1:1 Langmuir model of simultaneous fitting of kₒₙ and koff was used for kinetics analysis.

recombinant human ICAM1 [5] = target: T3, recombinant human ICAM1; assay: as above
Experimental: as §2

cynomolgus CD38 ECD = target: T4, cynomolgus CD38 ECD (cynomolgus, UniProt Q5VAN0 44-301, biotinylated on the AviTag during preparation); assay: as above
T4 construct: also called Cyno-CD38; Avi-Cyno CD38 ECD
Experimental: as §2

recombinant human CD38 = recombinant human CD38 (human, UniProt P28907 43-300, limits assumed); assay: as above
Experimental: as §2

T3 sequence (P05362 28-480 limits assumed): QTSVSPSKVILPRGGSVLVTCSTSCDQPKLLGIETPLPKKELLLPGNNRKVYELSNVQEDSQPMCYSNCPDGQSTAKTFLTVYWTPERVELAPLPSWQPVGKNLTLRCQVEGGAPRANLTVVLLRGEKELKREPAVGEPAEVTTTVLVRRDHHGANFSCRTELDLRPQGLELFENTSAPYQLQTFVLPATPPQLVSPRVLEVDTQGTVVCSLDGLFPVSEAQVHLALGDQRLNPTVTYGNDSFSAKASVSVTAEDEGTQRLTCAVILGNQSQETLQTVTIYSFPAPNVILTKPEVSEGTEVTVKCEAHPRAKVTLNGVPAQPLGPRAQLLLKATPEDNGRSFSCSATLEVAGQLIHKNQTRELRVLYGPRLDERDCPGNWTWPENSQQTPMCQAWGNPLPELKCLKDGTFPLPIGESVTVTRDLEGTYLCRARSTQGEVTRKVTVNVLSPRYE
T2 sequence (P05362 28-532): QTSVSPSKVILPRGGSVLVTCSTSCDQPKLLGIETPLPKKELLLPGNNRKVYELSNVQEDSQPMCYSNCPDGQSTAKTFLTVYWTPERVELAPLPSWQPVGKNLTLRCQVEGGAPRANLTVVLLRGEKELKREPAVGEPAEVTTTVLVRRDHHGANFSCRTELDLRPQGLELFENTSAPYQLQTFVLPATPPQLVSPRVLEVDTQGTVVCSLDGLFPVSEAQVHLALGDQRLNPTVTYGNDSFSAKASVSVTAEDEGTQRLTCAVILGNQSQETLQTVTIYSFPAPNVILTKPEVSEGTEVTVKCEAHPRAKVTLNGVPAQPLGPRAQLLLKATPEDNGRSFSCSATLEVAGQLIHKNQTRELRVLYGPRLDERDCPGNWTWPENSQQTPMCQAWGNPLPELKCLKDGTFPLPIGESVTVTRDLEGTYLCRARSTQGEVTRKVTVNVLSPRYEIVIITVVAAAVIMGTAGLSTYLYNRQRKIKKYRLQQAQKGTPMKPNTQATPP

| Binder | EC50 (read off the curve) (Rhesus-ICAM1 [1]) [nM] | EC50 [2] [nM] | Max Binding MFI [2] [MFI] | EC50 (read off the curve) (recombinant human ICAM1 [3]) [nM] | Kd (Rhesus-ICAM1 [4]) [nM] | koff (Rhesus-ICAM1 [4]) [s⁻¹] | kon (Rhesus-ICAM1 [4]) [M⁻¹ s⁻¹] | Kd (recombinant human ICAM1 [5]) [nM] | koff (recombinant human ICAM1 [5]) [s⁻¹] | kon (recombinant human ICAM1 [5]) [M⁻¹ s⁻¹] | Kd (cynomolgus CD38 ECD) [nM] | koff (cynomolgus CD38 ECD) [s⁻¹] | kon (cynomolgus CD38 ECD) [M⁻¹ s⁻¹] | Kd (recombinant human CD38) [nM] | koff (recombinant human CD38) [s⁻¹] | kon (recombinant human CD38) [M⁻¹ s⁻¹] |
| --- | --- | --- | --- | --- | --- | --- | --- | --- | --- | --- | --- | --- | --- | --- | --- | --- |
| B1 | ~0.04 | 1.31 | 4060 | ~0.04 | 0.25 | 0.000224 | 914000 | 0.29 | 0.000131 | 456000 |  |  |  |  |  |  |
| B2 | ~0.04 | 1.82 | 5270 | ~0.04 | 2.92 | 0.00125 | 427000 | 3.1 | 0.000345 | 111000 |  |  |  |  |  |  |
| B3 | ~0.04 | 1.04 | 4820 | ~0.04 | 4.28 | 0.000624 | 146000 | 2.65 | 0.000271 | 103000 |  |  |  |  |  |  |
| B4 | ~0.04 | 0.591 | 4690 | ~0.04 | 2.25 | 0.000434 | 193000 | 1.62 | 0.000237 | 146000 |  |  |  |  |  |  |
| B5 | ~0.04 | 0.879 | 5000 | ~0.04 | 1.79 | 0.000421 | 236000 | 2.12 | 0.000181 | 85500 |  |  |  |  |  |  |
| B6 | ~0.04 | 1.31 | 4720 | ~0.04 | 4.11 | 0.000568 | 138000 | 3.39 | 0.000256 | 75600 |  |  |  |  |  |  |
| B7 |  |  |  |  |  |  |  |  |  |  | 1.68 | 0.00288 | 1.71e+06 | 3.81 | 0.00188 | 494000 |
| B8 |  |  |  |  |  |  |  |  |  |  | 1.48 | 0.00321 | 2.17e+06 | 2.23 | 0.00121 | 542000 |
| B9 |  |  |  |  |  |  |  |  |  |  | 12.4 | 0.0155 | 1.25e+06 | 38.2 | 0.0116 | 304000 |
| B10 |  |  |  |  |  |  |  |  |  |  | 7.43 | 0.0156 | 2.1e+06 | 13.1 | 0.00887 | 675000 |
| B11 |  |  |  |  |  |  |  |  |  |  | 4.1 | 0.00496 | 1.21e+06 | 3.61 | 0.00178 | 493000 |
| B12 |  |  |  |  |  |  |  |  |  |  | 0.83 | 0.00144 | 1.74e+06 | 0.66 | 0.000295 | 449000 |
| B13 |  |  |  |  |  |  |  |  |  |  | 0.62 | 0.00157 | 2.53e+06 | 0.42 | 0.000273 | 657000 |
| B14 |  |  |  |  |  |  |  |  |  |  | 1.33 | 0.00168 | 1.26e+06 | 1.68 | 0.000596 | 354000 |
| B15 |  |  |  |  |  |  |  |  |  |  | 1.65 | 0.00253 | 1.53e+06 | 1.79 | 0.00077 | 430000 |
